# Columns and labels:
# [1] = molecular target: T1, human PD-L1 on CHO-K1 cells (human, UniProt Q9NZQ7 19-290); test: FACS, CHO-K1/hPD-L1 cells
# T1 construct: whole, on cells; also called CHO-K1/hPDL1; CHO-K1/hPD-L1
# [2] = molecular target: T2, human 4-1BB on CHO-K1 cells (human, UniProt Q07011 24-255); test: FACS, CHO-K1/hu4-1BB cells
# T2 construct: whole, on cells; also called CHO-K1/hu 4-1BB; CHO-K1/hu4-1BB
# Description: The binding abilities of the antibody molecules to a CHO-K1 cell strain highly expressing human 4-1BB (CHO-K1/hu4-1BB, GenScript, M00538) and a CHO-K1 cell strain highly expressing cynomolgus monkey 4-1BB (CHO-K1/cyno4-1BB, GenScript, M00569) were determined by flow cytometry FACS. Specifically, the cells were digested and resuspended in a complete medium, and the cell density was adjusted to 2×10⁶ cells/mL. Then, the cells were seeded in a 96-well V-bottom plate (Corning, #3894) at 100 μL/well (2×10⁵ cells/well) and centrifuged at 4° C. for 5 min, and the supernatant was discarded. Then, the serially diluted antibody molecules were added to the 96-well plate at 100 μL/well, and the mixtures were well mixed. The antibody molecules might serially diluted 3-fold from the highest final concentration 200 nM to obtain a total of 12 concentrations. hIgG1 iso (CrownBio, #C0001) was used as an isotype control. The cells were incubated at 4° C. for 1 h away from light. Then, the cells in each well were rinsed twice with 100 μL of pre-cooled FACS buffer (PBS buffer containing 0.5% BSA) and centrifuged at 500 g at 4° C. for 5 min, and then the supernatant was discarded. […] Then, the cells in each well were then rinsed twice with 200 μL of pre-cooled FACS buffer and centrifuged at 500 g at 4° C. for 5 min, and then the supernatant was discarded. Finally, a pre-cooled FACS buffer was added at 200 μL/well to resuspend the cells. The fluorescence signal values were read using a BD FACS CANTOII flow cytometer.
# T1 sequence (Q9NZQ7 19-290): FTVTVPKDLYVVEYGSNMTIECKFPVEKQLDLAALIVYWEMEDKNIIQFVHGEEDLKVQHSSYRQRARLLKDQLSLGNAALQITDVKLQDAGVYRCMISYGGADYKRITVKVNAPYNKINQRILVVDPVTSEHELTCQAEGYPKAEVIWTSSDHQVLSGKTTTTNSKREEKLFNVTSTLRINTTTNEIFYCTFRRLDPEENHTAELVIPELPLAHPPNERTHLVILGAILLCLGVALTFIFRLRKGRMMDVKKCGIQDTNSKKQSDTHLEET
# T2 sequence (Q07011 24-255): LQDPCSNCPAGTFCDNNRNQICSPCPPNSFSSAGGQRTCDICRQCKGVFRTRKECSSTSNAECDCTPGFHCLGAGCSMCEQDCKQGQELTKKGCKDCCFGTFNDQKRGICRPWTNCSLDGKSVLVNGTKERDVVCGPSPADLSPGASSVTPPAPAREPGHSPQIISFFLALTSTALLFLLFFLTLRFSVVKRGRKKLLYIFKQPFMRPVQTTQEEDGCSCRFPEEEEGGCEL
binder,measurement,setting,value
"PR007130 (bispecific antibody, human IgG1, kappa, PD-L1x4-1BB IgG-VH: PR000265 + VH of PR004469 at heavy-chain C-terminus) light: DIQMTQSPSTLSASVGDRVTVTCRASQSIYIWLAWYQQKPGKAPNLLIYKASSLETGVPSRFSGSGSGTEFTLTISSLQPDDFATYYCQQYYGSSRTFGQGTKVEIKRTVAAPSVFIFPPSDEQLKSGTASVVCLLNNFYPREAKVQWKVDNALQSGNSQESVTEQDSKDSTYSLSSTLTLSKADYEKHKVYACEVTHQGLSSPVTKSFNRGEC heavy: EVQLVESGGGLVQPGGSLRLSCAASGFTFSSYWMSWVRQAPGKGLEWVANIKQEGSEKYYVDSVKGRFTISRDNAKNSLYLQMNSLRAEDTAVYYCARDRAVAGAFDIWGQGTMVTVSSASTKGPSVFPLAPSSKSTSGGTAALGCLVKDYFPEPVTVSWNSGALTSGVHTFPAVLQSSGLYSLSSVVTVPSSSLGTQTYICNVNHKPSNTKVDKKVEPKSCDKTHTCPPCPAPEAAGAPSVFLFPPKPKDTLMISRTPEVTCVVVDVSHEDPEVKFNWYVDGVEVHNAKTKPREEQYNSTYRVVSVLTVLHQDWLNGKEYKCKVSNKALPAPIEKTISKAKGQPREPQVYTLPPSREEMTKNQVSLTCLVKGFYPSDIAVEWESNGQPENNYKTTPPVLDSDGSFFLYSKLTVDKSRWQQGNVFSCSVMHEALHNHYTQKSLSLSPGGGSGGSEVQLLESGGGLVQPGGSLRLSCAASGFTFSNYAMSWFRQPPETGLKWVSSIDASGGDTYYADSVKGRFTISRDNSKNTLYLQMNSLRAEDTAVYYCAKEGSHGTDDSHYDVDVWGQGTTVTVSS",binding result,[1],binds
same,binding result,[2],binds
"PR007132 (bispecific antibody, human IgG1, kappa, PD-L1x4-1BB IgG-VH: PR000265 + VH of PR007286 at heavy-chain C-terminus) light: DIQMTQSPSTLSASVGDRVTVTCRASQSIYIWLAWYQQKPGKAPNLLIYKASSLETGVPSRFSGSGSGTEFTLTISSLQPDDFATYYCQQYYGSSRTFGQGTKVEIKRTVAAPSVFIFPPSDEQLKSGTASVVCLLNNFYPREAKVQWKVDNALQSGNSQESVTEQDSKDSTYSLSSTLTLSKADYEKHKVYACEVTHQGLSSPVTKSFNRGEC heavy: EVQLVESGGGLVQPGGSLRLSCAASGFTFSSYWMSWVRQAPGKGLEWVANIKQEGSEKYYVDSVKGRFTISRDNAKNSLYLQMNSLRAEDTAVYYCARDRAVAGAFDIWGQGTMVTVSSASTKGPSVFPLAPSSKSTSGGTAALGCLVKDYFPEPVTVSWNSGALTSGVHTFPAVLQSSGLYSLSSVVTVPSSSLGTQTYICNVNHKPSNTKVDKKVEPKSCDKTHTCPPCPAPEAAGAPSVFLFPPKPKDTLMISRTPEVTCVVVDVSHEDPEVKFNWYVDGVEVHNAKTKPREEQYNSTYRVVSVLTVLHQDWLNGKEYKCKVSNKALPAPIEKTISKAKGQPREPQVYTLPPSREEMTKNQVSLTCLVKGFYPSDIAVEWESNGQPENNYKTTPPVLDSDGSFFLYSKLTVDKSRWQQGNVFSCSVMHEALHNHYTQKSLSLSPGGGSGGSEVQLVESGGGLVKPGGSLRLSCAASGFTFSDYYMSWIRQAPGKGLEWVSYISSSGSTIYYADSVKGRFTISRDNAKNSLYLQMNSLRAEDTAVYYCARVKPVAGTWDWFDPWGQGTPVTVSS",binding result,[1],binds
same,binding result,[2],binds
"PR007136 (bispecific antibody, human IgG1, kappa, PD-L1x4-1BB IgG-VH: PR000265 + VH of PR007289 at heavy-chain C-terminus) light: DIQMTQSPSTLSASVGDRVTVTCRASQSIYIWLAWYQQKPGKAPNLLIYKASSLETGVPSRFSGSGSGTEFTLTISSLQPDDFATYYCQQYYGSSRTFGQGTKVEIKRTVAAPSVFIFPPSDEQLKSGTASVVCLLNNFYPREAKVQWKVDNALQSGNSQESVTEQDSKDSTYSLSSTLTLSKADYEKHKVYACEVTHQGLSSPVTKSFNRGEC heavy: EVQLVESGGGLVQPGGSLRLSCAASGFTFSSYWMSWVRQAPGKGLEWVANIKQEGSEKYYVDSVKGRFTISRDNAKNSLYLQMNSLRAEDTAVYYCARDRAVAGAFDIWGQGTMVTVSSASTKGPSVFPLAPSSKSTSGGTAALGCLVKDYFPEPVTVSWNSGALTSGVHTFPAVLQSSGLYSLSSVVTVPSSSLGTQTYICNVNHKPSNTKVDKKVEPKSCDKTHTCPPCPAPEAAGAPSVFLFPPKPKDTLMISRTPEVTCVVVDVSHEDPEVKFNWYVDGVEVHNAKTKPREEQYNSTYRVVSVLTVLHQDWLNGKEYKCKVSNKALPAPIEKTISKAKGQPREPQVYTLPPSREEMTKNQVSLTCLVKGFYPSDIAVEWESNGQPENNYKTTPPVLDSDGSFFLYSKLTVDKSRWQQGNVFSCSVMHEALHNHYTQKSLSLSPGGGSGGSEVQLVESGGGLVKPGGSLRLSCAASGFTFSDYYMSWFRQAPGKGLEWVSYISSSGSTQDYADSVKGRFTISRDNAKNSLYLQMNSLRAEDTAVYYCAREREPVAGTLDFDNWGQGTPVTVSS",binding result,[1],binds
same,binding result,[2],binds
